Laboratory results published in the supplement of paper PMC9732359.
± gives the uncertainty stated by the source.

Experiment: protein stability index of a GFP-peptide fusion (yeast GPS) (PSI 1-4); higher = more stable; sorted into four equal gates, so the index is relative within each strain
Method in brief: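 For each peptide, the protein stability index sums the read frequency in every gate after multiplying it by the gate number. Read frequencies came from plasmids that were PCR-amplified from each gate and Illumina-sequenced, with reads assigned to strains by barcodes. The gates were four equal bins of GFP/Cherry fluorescence ratio applied to mid-log yeast in leucine-free medium carrying a pooled library of tiled 17-residue yeast protein peptides fused downstream of GFP on a Cherry-expressing plasmid.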

| Sequence | protein stability index (doa10∆) | protein stability index (pdr5∆) | protein stability index (san1∆) | protein stability index (ubr1∆) |
| --- | --- | --- | --- | --- |
| ADEMGLGKTIQTISLLT [SNF2] | 1.73 ± 0.092 | 2.5 ± 0.086 | 2.46 ± 0.08 | 2.41 ± 0.075 |
| ALSAYHKVQTKLTRELE [RPS7B] | 2.4 ± 0.055 | 2.54 ± 0.058 | 2.33 ± 0.065 | 2.58 ± 0.043 |
| KLQSWDKVSSCFPQYVN [NNF1] | 1.42 ± 0.099 | 1.94 ± 0.09 | 1.45 ± 0.15 | 2.68 ± 0.1 |
| DDLQKFNGIENQSAYEW [ISW2] | 3.2 ± 0.21 | 3.23 ± 0.21 | 3.29 ± 0.1 | 3.32 ± 0.14 |
| SSLIKAGLDKGISINNM [RPO31] | 2.65 ± 0.064 | 2.7 ± 0.079 | 2.76 ± 0.066 | 2.95 ± 0.058 |
| IDLLLLGQERATDLAGP [PRP8] | 2.47 ± 0.047 | 2.58 ± 0.083 | 2.34 ± 0.087 | 2.29 ± 0.05 |
| GSMFSGDNTSDVDMEDR [RRI1] | 2.01 ± 0.14 | 2.55 ± 0.074 | 2.51 ± 0.12 | 2.85 ± 0.16 |
| NLVSLLIIVTRKNYMHV [YML031W/NDC1] | 1.21 ± 0.041 | 1.22 ± 0.039 | 1.26 ± 0.11 | 1.3 ± 0.033 |
| AVHNGGRKHVAALRTVK [RPL9A] |  |  |  | 2.88 ± 0.19 |
| LVTQHKAKYNTPKYRLV [RPL5] | 1.43 ± 0.052 | 1.94 ± 0.064 | 1.76 ± 0.095 | 1.87 ± 0.058 |
| RGRGRGRGRGRGRPPKA [SNF2] | 3.22 ± 0.075 | 3.2 ± 0.066 | 3.37 ± 0.041 | 3.27 ± 0.06 |
| RLTRLWIKNEQERQRQI [PRP8] | 2.42 ± 0.14 | 2.56 ± 0.26 |  |  |
| RVLTQDGRVYIGQLMAF [SMB1] | 3.48 ± 0.098 | 3.26 ± 0.083 | 2.63 ± 0.09 | 3.05 ± 0.041 |
| QRTLSKSFYSTATGAAS [CYT1] | 1.98 ± 0.06 | 2.39 ± 0.054 | 2.43 ± 0.068 | 2.39 ± 0.048 |
| IQNQSPQFNSPYDSNNS [SWI1] | 2.97 ± 0.057 | 3 ± 0.053 | 2.74 ± 0.052 | 2.82 ± 0.046 |
| IIKKDEVVKRYLKMRQD [PUP3] | 3.66 ± 0.2 |  |  |  |
| DVKSSLSKVFSDVLFEF [YJL039C/NUP192] | 2.82 ± 0.12 | 3.28 ± 0.071 | 2.58 ± 0.1 | 2.89 ± 0.053 |
| LISGKAGVLNGTLEYGT [RET1] | 2.83 ± 0.056 | 3.03 ± 0.062 | 3.02 ± 0.063 | 2.99 ± 0.059 |
| HGMSVDPRHIQLLGDVM [RPO31] | 2.73 ± 0.057 | 2.82 ± 0.062 | 2.85 ± 0.049 | 2.98 ± 0.04 |
| SVARVEDHDVHSNESSN [IRR1] | 2.7 ± 0.059 | 2.99 ± 0.061 | 3.01 ± 0.052 | 2.81 ± 0.058 |
| PLIQNSMRTIMKANPAL [PRP8] | 2.4 ± 0.08 | 2.58 ± 0.22 | 1.56 ± 0.3 | 2.25 ± 0.17 |
| AKQAKIRAGEFDVVLTT [SNF2] | 3.56 ± 0.11 | 3.3 ± 0.13 | 2.57 ± 0.12 | 3.23 ± 0.11 |
| VSLTQLRCVKYLQETAI [RPC82] | 1.82 ± 0.14 | 2.18 ± 0.1 |  | 3.1 ± 0.28 |
| PQGSTTNGGLFGSGTQN [YGR119C/NUP57] | 3.12 ± 0.073 | 3.27 ± 0.058 | 3.3 ± 0.042 | 3.015 ± 0.029 |
| ETKDIRKQIQLLKKIIF [SRB4] | 2.34 ± 0.052 | 2.43 ± 0.044 | 2.42 ± 0.045 | 2.39 ± 0.039 |
| PPKHTELLLTTLSVSHG [SSN2] | 1.79 ± 0.038 | 1.8 ± 0.038 | 1.55 ± 0.07 | 1.61 ± 0.027 |

| Sequence | protein stability index (doa10∆) | protein stability index (pdr5∆) | protein stability index (san1∆) | protein stability index (ubr1∆) |
| --- | --- | --- | --- | --- |
| TFRLPKTLKLARAPKYA [RPL25] | 1.69 ± 0.076 | 1.61 ± 0.072 | 1.23 ± 0.19 | 1.19 ± 0.047 |
| VQNLRSWETKLKQNILE [CSN9] | 1.83 ± 0.077 | 2.04 ± 0.094 | 2.3 ± 0.11 | 1.82 ± 0.083 |
| AHAIDQMTWRQWLNNAL [POP8] | 2.67 ± 0.065 | 2.6 ± 0.046 | 2.41 ± 0.055 | 2.58 ± 0.04 |
| QELRKKVNPNIMNMIEN [SMC2] | 2.45 ± 0.13 | 2.72 ± 0.11 | 2.37 ± 0.13 | 2.47 ± 0.062 |
| KTKKEKGPNEEEKKKEH [RPN2] | 3.05 ± 0.28 | 3.32 ± 0.16 | 3.49 ± 0.081 | 3.13 ± 0.19 |
| VTNFNSTNEDQNNSKHT [SRB5] | 3.18 ± 0.16 | 2.44 ± 0.15 | 3.06 ± 0.18 | 2.71 ± 0.076 |
| ISKHSKQAIYTRAAASE [RPS25B] | 2.74 ± 0.055 | 2.73 ± 0.048 | 2.6 ± 0.047 | 2.86 ± 0.041 |
| NILLRERDSYKLLASTE [YIL149C/MLP2] | 2.59 ± 0.058 | 2.53 ± 0.055 | 2.49 ± 0.063 | 2.4 ± 0.055 |
| SNININVNNNNIGQQQV [SWI1] | 2.64 ± 0.19 | 3.01 ± 0.2 | 3.07 ± 0.074 | 3.13 ± 0.21 |
| THHTDIIPIVDYAQLDH [ARP9] | 2.58 ± 0.051 | 2.39 ± 0.041 | 2.66 ± 0.039 | 2.61 ± 0.031 |
| PYLLETYANVLIPCKYL [RPN7] | 1.32 ± 0.067 | 1.43 ± 0.063 | 1.19 ± 0.099 | 1.18 ± 0.062 |
| TAVATLLKELSKNAQFI [SMC3] | 2.88 ± 0.071 | 2.66 ± 0.052 | 2.8 ± 0.049 | 2.66 ± 0.048 |
| EAARICANKYMTTVSGR [RPL10] | 2.24 ± 0.24 | 2.59 ± 0.14 | 1.75 ± 0.2 | 1.93 ± 0.1 |
| KKEELVEIAYHKCDELI [RPO31] | 3.13 ± 0.25 | 2.96 ± 0.1 |  | 3.14 ± 0.093 |
| STANPNIKLLNNRMGSY [POP1] | 3.01 ± 0.086 | 3.16 ± 0.083 | 2.56 ± 0.088 | 3.04 ± 0.052 |
| KILQKRSISKELIVSEE [SIR3] | 2.37 ± 0.064 | 2.52 ± 0.075 | 2.28 ± 0.066 | 2.37 ± 0.052 |
| IKKKRKELFEKTFDYVS [SMC1] | 3.16 ± 0.12 | 3.07 ± 0.099 | 3.09 ± 0.12 | 3.13 ± 0.084 |
| AAPAATSAASGDAAPAE [RPP0] | 2.6 ± 0.091 | 2.38 ± 0.049 | 1.6 ± 0.1 | 2.42 ± 0.063 |
| EVDYEDKDNPVDSRNET [SRB4] | 3.46 ± 0.19 | 2.99 ± 0.17 | 3.47 ± 0.12 | 3.33 ± 0.25 |
| ESRKAFFLGYMINRLLL [RPB2] | 1.17 ± 0.092 | 1.17 ± 0.11 | 1.12 ± 0.09 | 1.09 ± 0.072 |
| LRLPFSAAMSIDKLSDV [PRP8] | 2.43 ± 0.053 | 2.42 ± 0.038 | 2.24 ± 0.048 | 2.3 ± 0.033 |
| QQQTNALNGIDINTVNT [GRR1] | 3.31 ± 0.053 | 3.25 ± 0.055 | 3.24 ± 0.044 | 3.19 ± 0.05 |
| LALMTAHSLSPKDYIKK [CDC53] | 3.1 ± 0.06 | 3.03 ± 0.059 | 3.25 ± 0.04 | 3.15 ± 0.052 |
| NASQMGNTGSGGYDNAW [RPB3] | 3.36 ± 0.28 | 3.31 ± 0.17 | 3.52 ± 0.2 | 2.5 ± 0.15 |
| KDPDVPLVLLQQIPLLC [POP3] | 2.33 ± 0.055 | 2.57 ± 0.064 | 2.4 ± 0.06 | 2.47 ± 0.052 |
